Data set [1] deals with T1, Nsp9COV19 (15N-labeled) (SARS-CoV-2, UniProt P0DTD1 4141-4253). Briefly: 15N-1H HSQC NMR titration.
Data set [2] addresses T1, Nsp9COV19 (15N-labeled). Briefly: 15N-1H HSQC NMR titration. This is another data set of the same source.

A word on the Kd: it is the free concentration of one partner at which half of the binding sites on the other are occupied at equilibrium, for simple one-to-one binding. A low value points to a tighter complex.

AUUCG (ssRNA) [RNA.1 (5 nt ssRNA)]: in the data set with Nsp9COV19 (15N-labeled) [1], the binding result is “binds”.
In the case of UUGGAGUU (ssRNA) [RNA.2 (8 nt ssRNA)], in the data set with Nsp9COV19 (15N-labeled) [2], the Kd was approximately 550 µM.
